Positions count from the first letter of the chain named. Names and notes keep the numbering of the source.
T1: EsCas13d, nuclease-dead (Eubacterium siraeum, UniProt B0MS50, R295A;H300A;R849A;H854A)
T1 sequence: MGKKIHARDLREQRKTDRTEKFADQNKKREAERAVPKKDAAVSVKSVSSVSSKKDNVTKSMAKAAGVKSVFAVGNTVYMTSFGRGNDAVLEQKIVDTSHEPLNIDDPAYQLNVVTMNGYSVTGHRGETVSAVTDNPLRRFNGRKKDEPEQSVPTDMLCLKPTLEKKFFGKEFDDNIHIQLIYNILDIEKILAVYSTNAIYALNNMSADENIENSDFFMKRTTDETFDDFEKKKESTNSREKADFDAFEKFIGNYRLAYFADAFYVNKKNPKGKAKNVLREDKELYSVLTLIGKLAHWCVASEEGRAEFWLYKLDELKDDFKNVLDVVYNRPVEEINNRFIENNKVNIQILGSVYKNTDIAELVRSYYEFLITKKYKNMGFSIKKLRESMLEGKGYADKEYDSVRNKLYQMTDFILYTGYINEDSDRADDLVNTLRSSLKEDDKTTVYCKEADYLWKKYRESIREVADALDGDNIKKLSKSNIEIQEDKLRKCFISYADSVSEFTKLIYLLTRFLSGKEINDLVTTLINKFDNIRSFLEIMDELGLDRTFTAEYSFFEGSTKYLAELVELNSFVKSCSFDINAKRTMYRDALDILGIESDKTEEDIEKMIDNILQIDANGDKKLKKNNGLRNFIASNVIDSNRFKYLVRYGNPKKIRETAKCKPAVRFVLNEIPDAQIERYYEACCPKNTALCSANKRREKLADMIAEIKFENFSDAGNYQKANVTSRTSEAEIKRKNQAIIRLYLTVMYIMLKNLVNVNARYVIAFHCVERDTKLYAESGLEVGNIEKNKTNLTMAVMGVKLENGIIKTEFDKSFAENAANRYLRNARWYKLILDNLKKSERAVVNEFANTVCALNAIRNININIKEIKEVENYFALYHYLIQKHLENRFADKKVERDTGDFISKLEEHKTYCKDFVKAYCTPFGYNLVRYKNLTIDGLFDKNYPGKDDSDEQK

B1: target 2 MT 5'PFS AGG 3'PFS AUC (mixed)
RNA 1: CACCCGUGCAAAAUUGCAGGGGUCUAAAACCUUCUCCAAAUUGUUUCAUCCU
RNA 2: GGGAAUGGAUCCACAUCUACGAAUUCAGGAGGAUGAAACAAUUUGGAGAAGAUCAGAUCGGAAGAGCACACGU
B2: target 2 MT 5'PFS AUU 3'PFS CUC (mixed)
RNA 1: B1 RNA 1
RNA 2: B1 RNA 2 with G28U, G29U, A52C
B3: target 2 MT 5'PFS UGA 3'PFS AUA (mixed)
RNA 1: B1 RNA 1
RNA 2: B1 RNA 2 with A27U, G29A, C54A
B4: target 2 MT 5'PFS AUU 3'PFS CUA (mixed)
RNA 1: B1 RNA 1
RNA 2: B1 RNA 2 with G28U, G29U, A52C, C54A
B5: target 2 MT 5'PFS UAG 3'PFS AAA (mixed)
RNA 1: B1 RNA 1
RNA 2: B1 RNA 2 with A27U, G28A, U53A, C54A
B6: target 2 MT 5'PFS UGA 3'PFS AUC (mixed)
RNA 1: B1 RNA 1
RNA 2: B1 RNA 2 with A27U, G29A
B7: target 2 MT 5'PFS UCG 3'PFS UCA (mixed)
RNA 1: B1 RNA 1
RNA 2: B1 RNA 2 with A27U, G28C, A52U, U53C, C54A
B8: target 2 MT 5'PFS AUU 3'PFS CUG (mixed)
RNA 1: B1 RNA 1
RNA 2: B1 RNA 2 with G28U, G29U, A52C, C54G
B9: target 2 MT 5'PFS UGA 3'PFS AUU (mixed)
RNA 1: B1 RNA 1
RNA 2: B1 RNA 2 with A27U, G29A, C54U
B10: target 2 MT 5'PFS CGG 3'PFS CAG (mixed)
RNA 1: B1 RNA 1
RNA 2: B1 RNA 2 with A27C, A52C, U53A, C54G
B11: target 2 MT 5'PFS UAG 3'PFS AAC (mixed)
RNA 1: B1 RNA 1
RNA 2: B1 RNA 2 with A27U, G28A, U53A
B12: target 2 MT 5'PFS UAG 3'PFS AAU (mixed)
RNA 1: B1 RNA 1
RNA 2: B1 RNA 2 with A27U, G28A, U53A, C54U
B13: target 2 MT 5'PFS UAG 3'PFS AAG (mixed)
RNA 1: B1 RNA 1
RNA 2: B1 RNA 2 with A27U, G28A, U53A, C54G
B14: target 2 MT 5'PFS UAG 3'PFS CCU (mixed)
RNA 1: B1 RNA 1
RNA 2: B1 RNA 2 with A27U, G28A, A52C, U53C, C54U
B15: target 2 MT 5'PFS CGG 3'PFS CAU (mixed)
RNA 1: B1 RNA 1
RNA 2: B1 RNA 2 with A27C, A52C, U53A, C54U
B16: target 1 insC 3' of 12,insG 3' of 4 (mixed)
RNA 1: CACCCGUGCAAAAAUGCAGGGGUCUAAAACUGAGCGGAUAACCUCUCUAUGG
RNA 2: GGGAAUGGAUCCACAUCUACGAAUUCGUACCAUAGAGAGGCUUAUCCGCGUCACCGAGAUCGGAAGAGCACACGU
B17: target 1 C4A,A18U (mixed)
RNA 1: B16 RNA 1
RNA 2: GGGAAUGGAUCCACAUCUACGAAUUCGUACCAUUGAGAGGUUAUCCGAUCACCGAGAUCGGAAGAGCACACGU

Molecular target: T1, EsCas13d, nuclease-dead
Assay: crRNA (strand 1, pre-loaded); Mg2+; 40 mM Tris-HCl pH 7.5, 150 mM NaCl, 6 mM MgCl2, 1 mM DTT, 0.1% Tween-20, 0.2 mg/ml BSA; 25 C; 10 min per concentration, then washed
Settings: tags: His6-TwinStrep-SUMO cleaved; N-terminal SNAP kept (SNAP-Surface 488); label: 3' end held by stalled T7 RNA polymerase

Binder	Kd
B1	5.5 ± 0.6 nM
B2	16.6 ± 3.1 nM
B3	7.1 ± 1.4 nM
B4	14 ± 4 nM
B5	2.2 ± 0.4 nM
B6	8.7 ± 1.1 nM
B7	21 ± 5 nM
B8	9.7 ± 1.3 nM
B9	7.5 ± 1.3 nM
B10	4.3 ± 0.6 nM
B11	3.6 ± 0.4 nM
B12	3.8 ± 0.5 nM
B13	2.87 ± 0.28 nM
B14	54 ± 17 nM
B15	4.4 ± 0.5 nM
B16	5.7 ± 0.5 nM
B17	21.1 ± 2.4 nM

Source: publication PMC10786891, “Massively parallel profiling of RNA-targeting CRISPR-Cas13d”
